The numbers were not newly measured in paper PMC4278352, which cites them from elsewhere.

For the series, the target named is PikAIII docking domain (Streptomyces venezuelae) (UniProt Q9ZGI3).
Chain of UniProt Q9ZGI3 (Q9ZGI3 1-34): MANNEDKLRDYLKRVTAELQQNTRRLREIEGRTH

What is called Kd is a measure of binding affinity in units of concentration. For “PikAII docking domain (from UniProt Q9ZGI4)”, the Kd was 5 µM.
